{
  "source": "patent US7037662",
  "about": "(dated 2006)",
  "binders": {"B1": {"name": "LERK 7-FLAG (monovalent LERK7/AL-1 with N-terminal FLAG peptide) (ligand, human, UniProt P52803 21-203, looked up, not shown: small tags and cut ends)", "chain": "QDPGSKAVADRYAVYWNSSNPRFQRGDYHIDVCINDYLDVFCPHYEDSVPEDKTERYVLYMVNFDGYSACDHTSKGFKRWECNRPHSPNGPLKFSEKFQLFTPFSLGFEFRPGREYFYISSAIPDNGRRSCLKLKVFVRPTNSCMKTIGVHDRVFDVNDKVENSLEPADDTVHESAEPSRGEN", "notes": "domain: mature protein stopped before the hydrophobic tail; also called soluble LERK7"}},
  "key": {"[1]": {"molecular_target": "T1, soluble HEK (sHEK), complete extracellular domain (exodomain) of HEK encoded by exons I-VII (human, UniProt P29320 21-541)", "T1 construct": "extracellular domain; Untagged soluble exodomain from CHO cells; also called HEK exodomain", "T1 sequence (looked up)": "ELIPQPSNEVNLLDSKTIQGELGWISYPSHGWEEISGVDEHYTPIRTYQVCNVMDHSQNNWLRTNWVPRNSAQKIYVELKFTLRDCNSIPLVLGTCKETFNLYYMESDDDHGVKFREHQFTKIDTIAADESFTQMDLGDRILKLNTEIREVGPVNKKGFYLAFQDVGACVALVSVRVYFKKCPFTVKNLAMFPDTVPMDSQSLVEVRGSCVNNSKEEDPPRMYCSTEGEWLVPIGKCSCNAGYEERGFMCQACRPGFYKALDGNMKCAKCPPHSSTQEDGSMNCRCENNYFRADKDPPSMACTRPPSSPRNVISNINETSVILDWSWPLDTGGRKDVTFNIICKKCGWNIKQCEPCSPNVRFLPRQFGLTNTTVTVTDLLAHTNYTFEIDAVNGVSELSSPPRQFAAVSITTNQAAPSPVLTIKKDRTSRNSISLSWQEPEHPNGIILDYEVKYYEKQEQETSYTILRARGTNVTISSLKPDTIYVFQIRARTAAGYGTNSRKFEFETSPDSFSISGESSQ", "assay": "BIAcore, apparent KD from kinetic constants, sHEK over sensor chip-immobilised LERK 7; sHEK over sensor chip-immobilised LERK 7", "description": "(§1) The binding of various HEK constructs and derived peptides was analysed on the BIAcore optical biosensor (Pharmacia Biosensor, Sweden) using purified soluble HEK (corresponding to the entire extracellular domain) or LERK 7-FLAG derivatised CM 5 sensor chips and the interaction kinetics determined. The immobilization of HEK onto the sensor chip surface was performed essentially as described by Lackmann et al, 1996. LERK7-FLAG (47 μg/ml in 20 mM sodium acetate, pH 4.5) was coupled at 5 μl/min onto N-hydroxysuccinimide (NHS, 0.05 M)/N-hydroxysuccinimide-N-ethyl-N'-([…]) carbodiimide(EDC, 0.2 M) activated sensor chips (45 μl, 2 μl/min) to yield an increase in the response level of 2500–3000 response units (RU).\n(§2) Figure 2D: FIG. 2D: sHEK proteins at increasing concentrations (15.6–500 nM) were injected onto LERK 7-derivatised sensor chips and the association rate constants, (M) derived from BIAcore raw data using the BIA evaluation software as described in *Materials and Methods*. Figure 2E: FIG. 2E; The kinetic rate constants were then used to estimate apparent dissociation constants according to K_D=kd/ka. The mean and standard deviation from estimates at five different concentrations are shown (dark shading). In addition, equilibrium responses were used to estimate the apparent equilibrium dissociation constants (light shading)."}, "[2]": {"molecular_target": "T1, soluble HEK (sHEK), complete …", "assay": "BIAcore, monovalent ligand constructs on HEK; reference LERK 3-FLAG"}, "[3]": {"molecular_target": "T1, soluble HEK (sHEK), complete …", "assay": "BIAcore, LERK-FLAG over immobilised HEK; reference LERK 3-FLAG"}, "[4]": {"molecular_target": "T2, HEK I-VII (N-terminally FLAG-tagged HEK exodomain, exons I-VII) (human, UniProt P29320 21-541)", "T2 construct": "extracellular domain; CHO cell product; in the zebrafish experiments expressed from injected mRNA; also called HEK-FLAG", "T2 sequence (looked up)": "T1 sequence (looked up)", "assay": "BIAcore, apparent KD from kinetic constants, HEK I-VII over sensor chip-immobilised LERK 7", "description": "as §1, §2"}, "[5]": {"molecular_target": "T1, soluble HEK (sHEK), complete …", "assay": "BIAcore, LERK 7-FLAG over immobilised sHEK, single component model", "description": "as §1\n(§3) Figures 5A, 5B: FIG. 5: Binding curves for the interaction of monovalent LERK-FLAG fusion proteins with immobilised sHEK. Homogeneous preparations of CHO cell-derived LERK 3-FLAG (panel A) or LERK 7-FLAG (panel B) at increasing concentrations (8.22, 16.44, 32.88, 65.75, 131.5, 263, 526 nM) of LERK3-FLAG, and (1.25, 2.5, 5, 10, 20, 40, 80 nM) LERK7-FLAG were injected across an sHEK-derivatised sensor surface. BIAcore data for the association and dissociation phases were used to estimate corresponding kinetic rate constants on the basis of a one-to-one interaction model. (panel C). […]"}, "[6]": {"molecular_target": "T1, soluble HEK (sHEK), complete …", "assay": "BIAcore, apparent KD from kinetic rate constants, immobilised sHEK", "description": "as §1, §3"}},
  "data": [
    {"binder": "B1", "values": [
      {"measurement": "Kd", "setting": "[1]", "result": 72, "unit": "nM"},
      {"measurement": "fold more avid than LERK3", "setting": "[2]", "result": 50, "unit": "fold"},
      {"measurement": "fold lower off rate than LERK3-FLAG", "setting": "[3]", "result": 40, "unit": "fold"},
      {"measurement": "Kd", "setting": "[4]", "result": 62, "unit": "nM"},
      {"measurement": "koff", "setting": "[5]", "result": 0.0061, "unit": "s⁻¹"},
      {"measurement": "kon", "setting": "[5]", "result": 480000, "unit": "M⁻¹ s⁻¹"},
      {"measurement": "Kd", "setting": "[6]", "result": 12, "unit": "nM"}
    ]}
  ]
}
